Results taken from patent US20200339680A1 (Alector, published 2020).

Key:
[1] = target: T1, human TMEM106B (human, UniProt Q9NUM4 2-274); experiment: FACS A549 1 ug/ml
T1 construct: full-length, transiently expressed on HEK293 cells, or natively expressed on HeLa, U251 and A549 cells (the cell is named under assay); also the source of the Pepscan peptides; also called huTMEM106B; huTMEM
Procedure: (§1) Purified anti-TMEM106B antibodies were evaluated for their binding affinity to various TMEM106B-expressing cell lines including HEK293 transiently transfected with human/cyno/mouse TMEM106B, as well as HeLa cells and A549 cells. Antibodies tested for this experiment were mouse IgGs purified from hybridoma supernatant. Affinity binding to cells was determined as follows. Briefly, 1×10\hat{ }5 cells were aliquoted per well in 96-well round bottom plates and incubated with 50 μL of purified anti-TMEM106B antibody at various concentrations (10× dilutions starting at 10 μg/ml) in FACS buffer (PBS+2% FBS+1 mM EDTA). […] Sorting was performed on a iQue (Intellicyt), with sort gates drawn to exclude dead (propidium iodide+) cells. Binding data was analyzed using median fluorescent intensity (MFI) and graphed in Prism. Values presented are MFI.

[2] = target: T1, human TMEM106B; experiment: FACS A549;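 note: flow cytometry of cells incubated on ice for 1 h with hybridoma supernatant or purified antibody at 10 µg/mL, dead propidium iodide-positive cells gated out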
[3] = target: T1, human TMEM106B; experiment: FACS HEK+huTMEM 0.1 ug/ml (2nd column so headed);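 note: flow cytometry binding of purified anti-TMEM106B mouse IgG to HEK293 cells transiently transfected with TMEM106B, read as median fluorescence intensity on live (propidium iodide-negative) cells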
Procedure: as §1

[4] = target: T2, mouse TMEM106B (mouse, UniProt Q80X71 2-275); experiment: FACS Neuro2a;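 note: flow cytometry of antibody binding to cells: hybridoma supernatant or purified antibody at 10 µg/ml, 1 h on ice, secondary detection, propidium iodide–positive dead cells gated out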
T2 construct: transiently expressed on HEK293 cells, or native on mouse Neuro2a cells; also called moTMEM106B; murine TMEM106B
Procedure: (§2) All cells were cultured in either T75 or T150 flasks. […] The enzyme was quenched by addition of fresh media, and the cells were then distributed into 96-well plates for FACS analysis.
(§3) FACS analysis was performed as follows. Each cell type was aliquoted in 96-well round bottom plates (2×10^5 cells per well), washed once with FACS buffer (PBS+2% FBS+1 mM EDTA), and incubated with 50 μL of hybridoma supernatant or purified antibody (10 μg/ml in FACS buffer) on ice for 1 hour. […] Following this secondary incubation, the cells were again washed 2× with ice-cold FACS buffer and resuspended in a final volume of 50 μL of FACS buffer+0.25 μl/well propidium iodide (Fisher Scientific #4BDB556463). Analysis was performed on a FACSCanto system (BD Biosciences) or iQue (Intellicyt), with sort gates drawn to exclude dead (i.e., propidium iodide positive) cells.

[5] = target: T1, human TMEM106B; experiment: FACS A549 10 ug/ml
Procedure: as §1

[6] = target: T1, human TMEM106B; experiment: FACS U251
Procedure: as §2, §3

[7] = target: T1, human TMEM106B; experiment: FACS HEK+huTMEM 10 ug/ml;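 note: flow cytometric binding of purified mouse IgG antibodies to HEK293 cells transiently expressing human TMEM106B, read as median fluorescence intensity on live cells with propidium iodide-positive cells excluded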
[8] = target: T1, human TMEM106B; experiment: FACS HeLa
[9] = target: T1, human TMEM106B; experiment: FACS HEK+huTMEM 0.1 ug/ml;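 note: flow cytometry binding of purified mouse IgG antibodies to HEK293 cells transiently expressing TMEM106B, read as median fluorescence intensity on live cells (propidium iodide negative gating)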
[10] = target: T1, human TMEM106B; experiment: FACS HEK+huTMEM 1.0 ug/ml;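 note: binding of purified mouse IgG antibodies to HEK293 cells transiently expressing human TMEM106B, read by flow cytometry as median fluorescence intensity of live, propidium iodide-negative cells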
Procedure: as §1

Binder | MFI [1] | MFI [2] | MFI [3] | MFI [4] | MFI [5] | MFI [6] | MFI [7] | MFI [8] | MFI [9] | MFI [10]
TM-11 (antibody, V domains shown) VH: QVQLKQSGPGQVQPSQSLSITCTVSGFSLSDYGVHWVRQSPGKGLEWLGVIWNNGNTDYNAAFISRLSINKDNSKSQVFFKMTSLQADDTAIYYCVRSLRPLHFDYWGQGTTVTVSS VL: DIVMTQSPSSLTMSVGQKVTMHCKSSQSLLNSNNLQNYLAWYQQKPGQSPTLLVYFASIRESGVPDRFIGSGSGTDFTLTISSVQAEDLADYFCQQHYNTPFTFGSGTKLEIR | 2870 MFI | 1340 MFI | 4280 MFI | 1040 MFI | 5580 MFI | 866 MFI | 57900 MFI | 1870 MFI | 16200 MFI | 54600 MFI
TM-12 (antibody, V domains shown) VH: EVQLQQSGAELMRPGASVKLSCTASGFNIQDYYMYWVKQRPEQGLEWIGRIDPEDGDAEYAPKFQGKATMTADTSSNTAYLQLSSLTSEDTAVYYCSTRVIYDGYYRTMDCWGQGTSVTVSS VL: DVLMTQIPLSLPVSLGDQASISCRSSQTIVHSNGNTYLEWYLKKPGQSPKLLIDKISNRFSGVPDRFSGSGSGTDFTLKISRVEAEDLGVYYCFQGSHVPYTFGGGTKLEIK | 3150 MFI | 1940 MFI | 3340 MFI | 3040 MFI | 4950 MFI | 1330 MFI | 75300 MFI | 2660 MFI | 19700 MFI | 77800 MFI
TM-13 (antibody, V domains shown) VH: QVQLQQSGAELVKPGASVKMSCKASGYTFTTFPIEWMKQSHGKGLEWIGNFHPYNDDTKYNEKFKGKATLTVDKSSSTVYLDLSRLTSDDSAVYYCARYFYGGMDYWGQGTSVTVSS VL: DIQMTQSPASLSVSVGETVTITCRASENIYSSLGWYQQKQGESPQLLVFAATNLADGVPSRFSGSGSGTQYSLKINSLQSEDFGTYYCQHLWSIPWTFGGGTRLEIK | 1950 MFI | 1260 MFI | 2900 MFI | 927 MFI | 3890 MFI | 787 MFI | 67500 MFI | 1380 MFI | 19100 MFI | 67100 MFI
TM-14 (antibody, V domains shown, mouse IgG (hybridoma)) VH: QVQLQQSGPELVRPGTSVKVSCKASGYAFTNYLIEWVKQRPGQGLEWIGVINPGGGNTDYSEKFKDKATLTADKSSNTAYIQLSSLTSEDSAVYFCARSPYSSYVGYAVDYWGQGTSVTVSS VL: DIQMTQSPSSLSASLGERVSLTCRASQDIGSNLNWLQQEPDGTIKRLIYATSSLDSGVPKRFSGSRSGSDYSLTISSLESEDFVVYYCLQYASSPRTFGGGTRLEIK | 409 MFI | 896 MFI | 314 MFI | 300 MFI | 438 MFI | 270 MFI | 1190 MFI | 307 MFI | 364 MFI | 680 MFI
TM-15 (antibody, V domains shown, mouse IgG (hybridoma)) VH: QVQLQQPGAEFVRPGASVKLSCKASGYTFTNYWITWVKQRPGHGLEWIGDIYPGSGNSNYNESFKRKATLTVDTSSSTAYMHLSSQTSEDSAVYFCARKAYGGFPYWGQGTLVTVSA VL: DIQMTQSPASLSVSVGETVTITCRVSENIYNNLAWYQQKQEKSPQLLVFAATNLADGVPSRFSGSGSGTQFSLKINSLQSEDFGTYYCQHFWDTPFTFGSGTKLEIK | 650 MFI | 938 MFI | 584 MFI | 470 MFI | 1980 MFI | 382 MFI | 63100 MFI | 660 MFI | 2060 MFI | 14300 MFI
TM-17 (antibody, V domains shown) VH: QVQLQQSGAELIRPGTSVKVSCKASGYAFTDYLIEWVKQRPGQGLEWIGVINPGSGGTNYNEKFKGKAKLTADKSSSTAYMQLSSLTSEDSAVYFCVRSSYGVYVAYPMDYWGQGTSVTVSS VL: DIQMTQSPSSLSASLGERVSLTCRASQDIGSNLNWLQQEPDGTIKRLIYATSSLDSGVPKRFSGSRSGSDYSLTISSLESEDFVDYYCLQYASSPRTFGGGTKLEIK | 379 MFI | 953 MFI | 1150 MFI | 385 MFI | 425 MFI | 305 MFI | 3960 MFI | 437 MFI | 1910 MFI | 2620 MFI
TM-18 (antibody, V domains shown) VH: EVRLQQSGPELVKPGASVKISCKTSGYTFTDYYMNWVKQSHGKSLEWIVNINPNNGDAFYNQKFKGKATLTVDKSSNTAYLDLRSLTSEDSAVYYCAREGQLRLRRVYAMDYWGQGTSVTVSS VL: DIVLAQSPASLAVSLGQRATISCRASKSVSISVYTYVHWYQQKPGQPPKLLIYLASNLESGVPARFSGSGSGTDFTLNIHPVEEEDAATYYCQHSRELPYTFGGGTKLEIK | 2620 MFI | 1490 MFI | 1740 MFI | 1930 MFI | 5190 MFI | 874 MFI | 71700 MFI | 1920 MFI | 10600 MFI | 67300 MFI
TM-19 (antibody, V domains shown) VH: DVQLQQSGAELVRPGASVKLSCTASGFNIKDYYMYWVKQRPEQGLEWIGRIDPEDGDTENAPKFRGMATMTADTSSNTAYLQLNSLTSEDTAVYYCTTRIGNLYHVMDYWGHGTSVTVSS VL: DVLMTQTPLSLPVSLGDQASISCRSSQSIVHSNGNTYLEWYLQKPGQAPKLLIDKVFNRFSGVPDRFSGSGSGTDFTLKISRVEAEDLGVYYCFQGSHVPFTFGSGTKLEIK | 3640 MFI | 1820 MFI | 3340 MFI | 2140 MFI | 4960 MFI | 878 MFI | 79000 MFI | 2430 MFI | 29800 MFI | 66800 MFI
TM-21 (antibody, V domains shown) VH: EVQLVESGGGLVKPGGSLKLSCAASGFTFSNYAMSWVRETPEKRLEWVAFISDGGGYIYYADNVKDRFTISRDNAKNNLYLQMRHLKSEDTAMYYCARDGGTGFTYWGQGTLVTVSV VL: DIVMTQAAFSNPVTLGTSASISCRSSKSLLHSNGITYLFWYLQKPGQSPQLLIYQMSNLASGVPDRFSSSGSGTDFTLRISRVEAEDVGVYYCVQNLELPYTFGGGTKLEIK | 2030 MFI | 1030 MFI | 2350 MFI | 706 MFI | 4230 MFI | 672 MFI | 69400 MFI | 1200 MFI | 15600 MFI | 69400 MFI
TM-22 (antibody, V domains shown) VH: QVQLQQSGPELVKPGASVKISCKASGYRFTSYYIHWVKQRPGQGLEWIGWIYPGNGITNYNEKFKGKATLTADTSSSTAYMQLSSLTSEDSAVYYCASPYYGIRNCYFDVWGTGTTVTVSS VL: DVLMTQTPLSLPVSLGDHASISCRSGQSIVHSNGNTYLEWYLQKPGQSPKLLIYKVSNRFSGVPDRFSGSGSGTDFTLKISRVEAEDLGIYYCFQGSHVPWTFGGGTKLEIK | 399 MFI | 1570 MFI | 500 MFI | 400 MFI | 478 MFI | 313 MFI | 3580 MFI | 408 MFI | 833 MFI | 2100 MFI
TM-23 (antibody, V domains shown) VH: QVQLQQSGAELIRPGTSVKVSCKASGYAFTNYLIEWVKKRPGQGLEWIGVINPGSGITNYNEKFKGKATLTADKSSSTAYMQLSSLTSEDSAVYFCARSDFITTVVADYWGQGTTVTVSS VL: DIVVTQTPLSLPVSFGDQVSISCRSSQSLTNYYGNTYLSWYLHKPGQSPQLLIYGISNRFSGVPDRFSGSGSGTDFTLKISTIKPEDLGMYYCLQGTHQPRTFGGGTKLEIK | 398 MFI | 1090 MFI | 1100 MFI | 333 MFI | 757 MFI | 278 MFI | 12400 MFI | 308 MFI | 2410 MFI | 3900 MFI
TM-25 (antibody, V domains shown) VH: EVQLVESGGDLVKPGGSLRLSCAASGFTFSGYGMSWIRQTPDKRLEWVATISSGGRYTVYPDSVKGRFTMSRDNVKNTLYLQMSSLKSEDTALYYCARDNFYSYAMDYWGLGTSVTVSA VL: DIVMTQAAFSNPVTLGTSASISCRSSKSLLHSNGITYLFWYLQKPGQSPQLLIYQMSNLASGVPDRFSSSGSGTDFTLRISRVEAEDVGVYYCAQNLELWTFGGGTKLEIK | 4530 MFI | 1700 MFI | 4310 MFI | 354 MFI | 7000 MFI | 1110 MFI | 60300 MFI | 2560 MFI | 32800 MFI | 64700 MFI
TM-26 (antibody, V domains shown) VH: QVQLQQSGAELIRPGTSVKVSCKASGYAFTNYLIEWVKKRPGQGLEWIGVINPGSGITNYNEKFKGKATLTADKSSSTAYMQLSSLTSEDSAVYFCARSDFITTVVADYWGQGTTVTVSS VL: DIVVTQTPLSLPVSFGDQVSISCRSSQSLTNYYGNTYLSWYLHKPGQSPQLLIYGISNRFSGVPDRFSGSGSGTDFTLKISTIKPEDLGMYYCLQGTHQPRTFGGGTKLEIK | 380 MFI | 952 MFI | 1000 MFI | 324 MFI | 509 MFI | 300 MFI | 3850 MFI | 384 MFI | 1960 MFI | 3340 MFI
